Laboratory results as given in US20050064507.

What was measured:
[1] = system: T1, SDPR peptide EKIKRSSLKKVDSLKK (SEQ ID NO:104)
T1 sequence: EKIKRSSLKKVDSLKK

[2] = system: T2, DGKZ peptide KKKKRASFKRKSSKKG (SEQ ID NO:77)
T2 sequence: KKKKRASFKRKSSKKG

[3] = system: T3, KCNH2 peptide RQRKRKLSFRRRTDKD (SEQ ID NO:86)
T3 sequence: RQRKRKLSFRRRTDKD

[4] = system: T4, ASIP peptide KKRSSKKEASMKKVVRP (SEQ ID NO:97)
T4 sequence: KKRSSKKEASMKKVVRP

[5] = system: T5, NR4A3 peptide KEVVRTDSLKGRRGR (SEQ ID NO:109)
T5 sequence: KEVVRTDSLKGRRGR

[6] = system: T6, MARCKS peptide KKKKKRFSFKKSFKL (SEQ ID NO:80)
T6 sequence: KKKKKRFSFKKSFKL

[7] = system: T7, CACNA1C peptide RGFLRSASLGRRASFHLE (SEQ ID NO:96)
T7 sequence: RGFLRSASLGRRASFHLE

[8] = system: T8, PSCD2 peptide AARKKRISVKKKQEQ (SEQ ID NO:93)
T8 sequence: AARKKRISVKKKQEQ

[9] = system: T9, PLEC1 peptide KRERKTSSKSSVRKRR (SEQ ID NO:81)
T9 sequence: KRERKTSSKSSVRKRR

[10] = system: T10, SYTL4 peptide RQGKRKTSIKRDTVNPL (SEQ ID NO:87)
T10 sequence: RQGKRKTSIKRDTVNPL

[11] = system: T11, ADD2 peptide KKKFRTPSFLKKSKK (SEQ ID NO:95)
T11 sequence: KKKFRTPSFLKKSKK

[12] = system: T12, GABRB2 peptide QKKSRLRRRASQLKI (SEQ ID NO:84)
T12 sequence: QKKSRLRRRASQLKI

[13] = system: T13, NF1 peptide AGSFKRNSIKKIV (SEQ ID NO:102)
T13 sequence: AGSFKRNSIKKIV

[14] = system: T14, NEURL peptide ALRRPSLRREADD (SEQ ID NO:105)
T14 sequence: ALRRPSLRREADD

[15] = system: T15, EBNA1BP2 peptide KRPGKKGSNKRPGKR (SEQ ID NO:112)
T15 sequence: KRPGKKGSNKRPGKR

[16] = system: T16, MARCKS peptide KKKRFSFKKSFKLSGFSFKK (SEQ ID NO:111)
T16 sequence: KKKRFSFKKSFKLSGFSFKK

[17] = system: T17, SPTBN4 peptide EGGDRRASGRRK (SEQ ID NO:110)
T17 sequence: EGGDRRASGRRK

[18] = system: T18, ARHGAP6 peptide DGQKRKKSLRKKLD (SEQ ID NO:92)
T18 sequence: DGQKRKKSLRKKLD

[19] = system: T19, CHRM1 peptide RKIPKRPGSVHRTPSRQ (SEQ ID NO:83)
T19 sequence: RKIPKRPGSVHRTPSRQ

[20] = system: T20, FLJ20574 peptide GENVLKKSMKSRVKG (SEQ ID NO:113)
T20 sequence: GENVLKKSMKSRVKG

[21] = system: T21, PLEK peptide KFARKSTRRSIRLPE (SEQ ID NO:78)
T21 sequence: KFARKSTRRSIRLPE

[22] = system: T22, CREB1 peptide EILSRRPSYRKILND (SEQ ID NO:106)
T22 sequence: EILSRRPSYRKILND

[23] = system: T23, MLK3 peptide HVRRRRGTFKRSKLRARD (SEQ ID NO:76)
T23 sequence: HVRRRRGTFKRSKLRARD

[24] = system: T24, p164-RhoGEF peptide PRLIRRGSKKRPAR (SEQ ID NO:82)
T24 sequence: PRLIRRGSKKRPAR

[25] = system: T25, LIMK2 peptide KATTKKRTLRKNDRK (SEQ ID NO:108)
T25 sequence: KATTKKRTLRKNDRK

[26] = system: T26, MAP3K14 peptide WKGKRRSKARKKRK (SEQ ID NO:100)
T26 sequence: WKGKRRSKARKKRK

[27] = system: T27, PRKCA peptide RFARKGSLRQKNV (SEQ ID NO:85)
T27 sequence: RFARKGSLRQKNV

[28] = system: T28, PARIS1 peptide EYLERRASRRRAV (SEQ ID NO:89)
T28 sequence: EYLERRASRRRAV

[29] = system: T29, MYBPC3 peptide LLKKRDSFRTPRDSKLE (SEQ ID NO:103)
T29 sequence: LLKKRDSFRTPRDSKLE

[30] = system: T30, MACMARCKS peptide KKPFKLSGLSFKRNRKE (SEQ ID NO:88)
T30 sequence: KKPFKLSGLSFKRNRKE

[31] = system: T31, PRKCM peptide VHYTSKDTLRKRHYWR (SEQ ID NO:91)
T31 sequence: VHYTSKDTLRKRHYWR

[32] = system: T32, ERN1 peptide KLAVGRHSFSRRSGV (SEQ ID NO:94)
T32 sequence: KLAVGRHSFSRRSGV

[33] = system: T33, ARHGAP4 peptide AGPLRKSSLKKGGRL (SEQ ID NO:98)
T33 sequence: AGPLRKSSLKKGGRL

[34] = system: T34, NCF1 peptide GAPPRRSSIRNAH (SEQ ID NO:101)
T34 sequence: GAPPRRSSIRNAH

[35] = system: T35, AKAP12 peptide AGWRKKTSFRKPKED (SEQ ID NO:99)
T35 sequence: AGWRKKTSFRKPKED

[36] = system: T36, PPP1R14A peptide QKRHARVTVKYDRRE (SEQ ID NO:107)
T36 sequence: QKRHARVTVKYDRRE

[37] = system: T37, ANK1 peptide AQIVKRASLKRGKQ (SEQ ID NO:90)
T37 sequence: AQIVKRASLKRGKQ

[38] = system: T38, DGKI peptide NRKKKRTSFKRKA (SEQ ID NO:79)
T38 sequence: NRKKKRTSFKRKA

Substance | in vitro phosphorylation (% of best substrate) [1] | in vitro phosphorylation (% of best substrate) [2] | in vitro phosphorylation (% of best substrate) [3] | in vitro phosphorylation (% of best substrate) [4] | in vitro phosphorylation (% of best substrate) [5] | in vitro phosphorylation (% of best substrate) [6] | in vitro phosphorylation (% of best substrate) [7] | in vitro phosphorylation (% of best substrate) [8] | in vitro phosphorylation (% of best substrate) [9] | in vitro phosphorylation (% of best substrate) [10] | in vitro phosphorylation (% of best substrate) [11] | in vitro phosphorylation (% of best substrate) [12] | in vitro phosphorylation (% of best substrate) [13] | in vitro phosphorylation (% of best substrate) [14] | in vitro phosphorylation (% of best substrate) [15] | in vitro phosphorylation (% of best substrate) [16] | in vitro phosphorylation (% of best substrate) [17] | in vitro phosphorylation (% of best substrate) [18] | in vitro phosphorylation (% of best substrate) [19] | in vitro phosphorylation (% of best substrate) [20] | also measured
AKT1 | 2 | 8 | 39 | 10 | 2 | 6 | 32 | 7 | 9 | 7 | 9 | 10 | 6 | 12 | 3 | 3 | 1 | 2 | 6 | 9 | in vitro phosphorylation (% of best substrate) [21]: 2; in vitro phosphorylation (% of best substrate) [22]: 12; in vitro phosphorylation (% of best substrate) [23]: 100; in vitro phosphorylation (% of best substrate) [24]: 9; in vitro phosphorylation (% of best substrate) [25]: 1; in vitro phosphorylation (% of best substrate) [26]: 3; in vitro phosphorylation (% of best substrate) [27]: 10; in vitro phosphorylation (% of best substrate) [28]: 1; in vitro phosphorylation (% of best substrate) [29]: 7; in vitro phosphorylation (% of best substrate) [30]: 10; in vitro phosphorylation (% of best substrate) [31]: 5; in vitro phosphorylation (% of best substrate) [32]: 9; in vitro phosphorylation (% of best substrate) [33]: 7; in vitro phosphorylation (% of best substrate) [34]: 12; in vitro phosphorylation (% of best substrate) [35]: 6; in vitro phosphorylation (% of best substrate) [36]: 3; in vitro phosphorylation (% of best substrate) [37]: 3; in vitro phosphorylation (% of best substrate) [38]: 7
PKA | 1 | 4 | 87 | 1 | 1 | 3 | 86 | 1 | 2 | 64 | 2 | 63 | 5 | 84 | 0 | 3 | 1 | 18 | 2 | 0 | in vitro phosphorylation (% of best substrate) [21]: 5; in vitro phosphorylation (% of best substrate) [22]: 30; in vitro phosphorylation (% of best substrate) [23]: 69; in vitro phosphorylation (% of best substrate) [24]: 10; in vitro phosphorylation (% of best substrate) [25]: 0; in vitro phosphorylation (% of best substrate) [26]: 2; in vitro phosphorylation (% of best substrate) [27]: 81; in vitro phosphorylation (% of best substrate) [28]: 4; in vitro phosphorylation (% of best substrate) [29]: 3; in vitro phosphorylation (% of best substrate) [30]: 3; in vitro phosphorylation (% of best substrate) [31]: 3; in vitro phosphorylation (% of best substrate) [32]: 5; in vitro phosphorylation (% of best substrate) [33]: 21; in vitro phosphorylation (% of best substrate) [34]: 100; in vitro phosphorylation (% of best substrate) [35]: 1; in vitro phosphorylation (% of best substrate) [36]: 2; in vitro phosphorylation (% of best substrate) [37]: 3; in vitro phosphorylation (% of best substrate) [38]: 3
